{"source": "patent US20250122274A1", "about": "(SCHOLAR ROCK, published 2025)", "binders": {"B1": {"name": "Ab116 (antibody, human IgG4 S228P, kappa, V domains shown)", "VH": "QVQLVQSGAEVKKPGASVKVSCKVSGFTFSRPAIHWVRQAPGKGLEWMGGINPNAATTIYAQKFQGRVTMTEDTSTDTAYMELSSLKSEDTAVYYCARGRLLREWELRPYDTWGQGTLVTVSS", "VL": "DIQMTQSPSSVSASVGDRVTITCRASQSIGKSLAWYQQKPGKAPKLLIYSASNLRSGVPSRFSGSGSGTDFTLTISSLQPEDFANYYCQQYRDVPPITFGGGTKVEIKR"}, "B2": {"name": "Ab113 (antibody, human IgG4 S228P, kappa, V domains shown)", "VH": "QVQLVQSGAEVKKPGASVKVSCKVSGYLLTELSIHWVRQAPGKGLEWMGGIIPSFGTAIYAQKFQGRVTMTEDTSTDTAYMELSSLKSEDTAVYYCAISYSGFDLLPLDKWGQGTLVTVSS", "VL": "DIQMTQSPSSVSASVGDRVTITCRASQHISTWLAWYQQKPGKAPKLLIYYASSLQGGVPSRFSGSGSGTDFTLTISSLQPEDFANYYCLQTYTYPRTFGGGTKVEIKR"}, "B3": {"name": "Ab104 (antibody, human IgG4 S228P, kappa, V domains shown)", "VH": "EVQLVESGGGLVQPGGSLRLSCAASGSAFSSYGMSWVRQAPGKGLELVASINSNGGSTYYPDSVKGRFTISRDNAKNSLYLQMNSLRAEDTAVYYCARDLLVKFLSWSHYYGMDVWGQGTTVTVSS", "VL": "DIVMTQSPLSLPVTPGEPASISCRSSQSLLHSSGHNFLHWYLQKPGQSPQLLIYEVSNRVSGVPDRFSGSGSGTDFTLKISRVEAEDVGVYYCMQQTQYPPTFGGGTKVEIKR"}, "B4": {"name": "Ab109 (antibody, human IgG4 S228P, kappa, V domains shown)", "VH": "EVQLVESGGGLVQPGGSLRLSCAASGFTFSSYGMSWVRQAPGKGLELVASFTGSGGTYYPDSVKGRFTISRDNAKNSLYLQMNSLRAEDTAVYYCARDLLIRFLEWSHYYGMDVWGQGTTVTVSS", "VL": "B3 VL", "notes": "also called Ab109 Human IgG4"}, "B5": {"name": "Ab110 (antibody, human IgG4 S228P, kappa, V domains shown)", "VH": "QVQLVQSGAEVKKPGASVKVSCKVSEYTFTNYDIHWVRQAPGKGLEWMGGISAYHGNAIYAQKFQGRVTMTEDTSTDTAYMELSSLKSEDTAVYYCARDRVRRDYYNFGMDVWGQGTTVTVSS", "VL": "DIQMTQSPSSVSASVGDRVTITCRASEDITSYLAWYQQKPGKAPKLLIYDVSSLQSGVPSRFSGSGSGTDFTLTISSLQPEDFANYYCLQHNAYPYGFGGGTKVEIKR"}}, "key": {"[1]": {"target": "cyno pro-myostatin (cynomolgus monkey)", "test": "ELISA-type titration, OD 450 nm, Cyno-Pro-GDF-8 Plate 2; protocol not described in the text"}, "murine pro-myostatin [2]": {"target": "T1, murine pro-myostatin (mouse, UniProt O08689 25-376, biotinylated (SPR))", "T1 construct": "also called proGDF8 (mouse); mouse pro-myostatin", "test": "ELISA-type titration, OD 450 nm, Mu-Pro-GDF-8 Plate 1; protocol not described in the text"}, "murine pro-myostatin [3]": {"target": "T1, murine pro-myostatin", "test": "ELISA-type titration, absorbance 450 nm, panel Murine Pure Pro-GDF-8; protocol not described in the text"}, "human pro-myostatin": {"target": "T2, human pro-myostatin (human, UniProt O14793 24-375, biotinylated (SPR))", "T2 construct": "Disulfide-linked homodimer; also called proGDF8 (human)", "test": "SPR Biacore 8K, biotinylated antigen captured"}, "[4]": {"target": "cyno pro-myostatin (cynomolgus monkey)", "test": "ELISA-type titration, OD 450 nm, Cyno-Pro-GDF-8 Plate 1; protocol not described in the text"}}}
{"binder": "B1", "values": [{"measurement": "EC50 (read off the curve)", "setting": "[1]", "value": 0.5, "unit": "nM"}]}
{"binder": "B2", "values": [{"measurement": "binding result", "setting": "murine pro-myostatin [2]", "value": "binds"}]}
{"binder": "B3", "values": [{"measurement": "EC50 (read off the curve)", "setting": "murine pro-myostatin [3]", "value": "~0.7", "unit": "nM"}]}
{"binder": "B4", "values": [{"measurement": "koff", "setting": "human pro-myostatin", "value": "~0.000916", "unit": "s⁻¹"}]}
{"binder": "B5", "values": [{"measurement": "EC50 (read off the curve)", "setting": "[4]", "value": 0.3, "unit": "nM"}]}
